The values below come from publication PMC10610038, “New Insights into the Enhancement of Adventitious Root Formation Using N,N′-Bis(2,3-methylenedioxyphenyl)urea” (Plants, 2023).

The term Km denotes the concentration of substrate that gives half-maximal velocity.

Substrate in the data set: C/C(=C\CNc1ncnc2[nH]cnc12)CO
As to the kind of experiment: purified protein. The settings on record: FAD.

B1: ZmCKX1 (cytokinin oxidase/dehydrogenase) (Zea mays) (protein)
chain: LAAGTPALGDDRGRPWPASLAALALDGKLRTDSNATAAASTDFGNITSALPAAVLYPSSTGDLVALLSAANSTPGWPYTIAFRGRGHSLMGQAFAPGGVVVNMASLGDAAAPPRINVSADGRYVDAGGEQVWIDVLRASLARGVAPRSWNDYLYLTVGGTLSNAGISGQAFRHGPQISNVLEMDVITGHGEMVTCSKQLNADLFDAVLGGLGQFGVITRARIAVEPAPARARWVRFVYTDFAAFSADQERLTAPRPGGGGASFGPMSYVEGSVFVNQSLATDLANTGFFTDADVARIVALAGERNATTVYSIEATLNYDNATAAAAAVDQELASVLGTLSYVEGFAFQRDVAYAAFLDRVHGEEVALNKLGLWRVPHPWLNMFVPRSRIADFDRGVFKGILQGTDIVGPLIVYPLNKSMWDDGMSAATPSEDVFYAVSLLFSSVAPNDLARLQEQNRRILRFCDLAGIQYKTYLARHTDRSDWVRHFGAAKWNRFVEMKNKYDPKRLLSPGQDIFN
For the protein B1, the Km is 6.8 ± 1.3 µM.
